Reference: paper PMC10397247

Tests used:
[1] = molecular target: T1, 4H87-AA; test: two-hybrid library CCmax; details: mean of both orientations;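 also: natural log of median RNA to DNA barcode read ratio; higher means stronger binding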
T1 chain: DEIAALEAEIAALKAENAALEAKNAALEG

[2] = molecular target: T2, 4H816-AA; test: two-hybrid library CCmax;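 also: natural log of median RNA to DNA barcode read ratio; higher means stronger binding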
T2 chain: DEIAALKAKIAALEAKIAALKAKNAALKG

[3] = molecular target: T3, APC8401-AA; test: two-hybrid library CCmax; details: mean of both orientations;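 also: natural log of median RNA to DNA barcode read ratio; higher means stronger binding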
T3 chain: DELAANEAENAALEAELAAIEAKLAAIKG

[4] = molecular target: T4, APC8516-AA; test: two-hybrid library CCmax; details: mean of both orientations;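 also: natural log of median RNA to DNA barcode read ratio; higher means stronger binding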
T4 chain: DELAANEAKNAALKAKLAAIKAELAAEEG

[5] = molecular target: T5, APC7524-AA; test: two-hybrid library CCmax; details: mean of both orientations;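 also: natural log of median RNA to DNA barcode read ratio; higher means stronger binding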
T5 chain: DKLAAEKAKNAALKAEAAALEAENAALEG

[6] = molecular target: T6, APC9291-AA; test: two-hybrid library CCmax; details: mean of both orientations;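 also: natural log of median RNA to DNA barcode read ratio; higher means stronger binding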
T6 chain: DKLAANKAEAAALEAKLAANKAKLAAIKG

[7] = molecular target: T7, APC9806-AA; test: two-hybrid library CCmax; details: mean of both orientations
T7 chain: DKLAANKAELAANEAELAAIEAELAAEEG

[8] = molecular target: T8, APC9182-AA; test: two-hybrid library CCmax; details: mean of both orientations
T8 chain: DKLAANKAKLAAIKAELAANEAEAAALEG

[9] = molecular target: T9, APC6088-AA; test: two-hybrid library CCmax
T9 chain: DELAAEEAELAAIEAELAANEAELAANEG

[10] = molecular target: T10, APC9141-AA; test: two-hybrid library CCmax; details: mean of both orientations
T10 chain: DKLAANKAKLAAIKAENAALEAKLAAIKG

[11] = molecular target: T11, 4H953-bA; test: two-hybrid library CCNG1
T11 chain: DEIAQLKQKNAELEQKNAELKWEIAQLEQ

[12] = molecular target: T12, 4H797-bA; test: two-hybrid library CCNG1
T12 chain: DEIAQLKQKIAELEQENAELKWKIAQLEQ

[13] = molecular target: T13, 4H918-bA; test: two-hybrid library CCNG1
T13 chain: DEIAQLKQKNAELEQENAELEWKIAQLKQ

[14] = molecular target: T14, 4H968-bA; test: two-hybrid library CCNG1
T14 chain: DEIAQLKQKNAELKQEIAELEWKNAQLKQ

[15] = molecular target: T15, 4H908-bA; test: two-hybrid library CCNG1
T15 chain: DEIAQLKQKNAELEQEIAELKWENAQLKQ

[16] = molecular target: T16, 4H967-bA; test: two-hybrid library CCNG1
T16 chain: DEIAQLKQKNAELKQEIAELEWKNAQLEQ

[17] = molecular target: T17, 4H883-bA; test: two-hybrid library CCNG1
T17 chain: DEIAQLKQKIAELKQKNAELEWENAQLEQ

[18] = molecular target: T18, 4H855-bA; test: two-hybrid library CCNG1
T18 chain: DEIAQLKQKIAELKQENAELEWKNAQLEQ

For DEIAALKAKIAALEAKIAALKAKNAALKG [4H816-AA], the interaction score [1] was 0.567 and the interaction score [2] was 1.02.

For DELAAEEAELAAIEAELAANEAELAANEG [APC6088-AA], the interaction score [3] was -1.56, the interaction score [4] was -2.19 and the interaction score [5] was -1.52. For the same binder, the interaction score [6] was -1.58, the interaction score [7] was -1.36 and the interaction score [8] was -1.84. It also gave an interaction score [9] of -1.3 and an interaction score [10] of -1.67.

DEIAQLKQKIAELEQENAELKWKIAQLEQ [4H797-bA] showed an interaction score [11] of -0.848, an interaction score [12] of 0.406 and an interaction score [13] of 0.787. The interaction score [14] was -1.67, the interaction score [15] was -0.499 and the interaction score [16] was -0.372. For the same binder, the interaction score [17] was -0.129 and the interaction score [18] was 0.572.
